Experimental data as given in patent US20220411504A1 (Janssen / Centocor, published 2022).

B1: HC3B124 (bispecific antibody, human IgG1, lambda, L234A L235A)
heavy: EVQLVESGGGLVQPGGSLRLSCAASGFTFNTYAMNWVRQAPGKGLEWVARIRSKYNNYATYYAASVKGRFTISRDDSKNSLYLQMNSLKTEDTAVYYCVRHGNFGNSYVSWFAYWGQGTLVTVSSASTKGPSVFPLAPSSKSTSGGTAALGCLVKDYFPEPVTVSWNSGALTSGVHTFPAVLQSSGLYSLSSVVTVPSSSLGTQTYICNVNHKPSNTKVDKKVEPKSCDKTHTCPPCPAPEAAGGPSVFLFPPKPKDTLMISRTPEVTCVVVSVSHEDPEVKFNWYVDGVEVHNAKTKPREEQYNSTYRVVSVLTVLHQDWLNGKEYKCKVSNKALPAPIEKTISKAKGQPREPQVYVYPPSREEMTKNQVSLTCLVKGFYPSDIAVEWESNGQPENNYKTTPPVLDSDGSFALVSKLTVDKSRWQQGNVFSCSVMHEALHNHYTQKSLSLSPG
light: QTVVTQEPSLTVSPGGTVTLTCRSSTGAVTTSNYANWVQQKPGQAPRGLIGGTNKRAPGTPARFSGSLLGGKAALTLSGVQPEDEAEYYCALWYSNLWVFGGGTKLTVLGQPKAAPSVTLFPPSSEELQANKATLVCLISDFYPGAVTVAWKADSSPVKAGVETTTPSKQSNNKYAASSYLSLTPEQWKSHRSYSCQVTHEGSTVEKTVAPTECS
scFv: DIVMTQSPDSLAVSLGERATINCKSSQSVLHSSNNKNYLTWFQQKPGQPPKLLIYWASTRESGVPDRFSGSGSGTDFTLTISSLQAEDVAVYYCHQYYSTPPTFGQGTKVEIKGGSEGKSSGSGSESKSTGGSQVQLQQSGPGLVKPSQTLSLTCAISGDSVSSNSAAWNWIRQSPSRGLEWLGRTYYRSKWYNDYAVSVKSRITINPDTSKNQISLQLNSVTPEDTAVYYCAGDRRYGIVGLPFAYWGQGTLVTVSSEPKSSDKTHTCPPCPAPEAAGGPSVFLFPPKPKDTLMISRTPEVTCVVVSVSHEDPEVKFNWYVDGVEVHNAKTKPREEQYNSTYRVVSVLTVLHQDWLNGKEYKCKVSNKALPAPIEKTISKAKGQPREPQVYVLPPSREEMTKNQVSLLCLVKGFYPSDIAVEWESNGQPENNYLTWPPVLDSDGSFFLYSKLTVDKSRWQQGNVFSCSVMHEALHNHYTQKSLSLSPG
B2: HC3B123 (bispecific antibody, human IgG1, kappa, L234A L235A)
heavy: EVQLVESGGGLVKPGGSLRLSCAASGFTFSRYNMNWVRQAPGKGLEWVSSISTSSNYIYYADSVKGRFTFSRDNAKNSLDLQMSGLRAEDTAIYYCTRGWGPFDYWGQGTLVTVSSASTKGPSVFPLAPSSKSTSGGTAALGCLVKDYFPEPVTVSWNSGALTSGVHTFPAVLQSSGLYSLSSVVTVPSSSLGTQTYICNVNHKPSNTKVDKKVEPKSCDKTHTCPPCPAPEAAGGPSVFLFPPKPKDTLMISRTPEVTCVVVSVSHEDPEVKFNWYVDGVEVHNAKTKPREEQYNSTYRVVSVLTVLHQDWLNGKEYKCKVSNKALPAPIEKTISKAKGQPREPQVYVYPPSREEMTKNQVSLTCLVKGFYPSDIAVEWESNGQPENNYKTTPPVLDSDGSFALVSKLTVDKSRWQQGNVFSCSVMHEALHNHYTQKSLSLSPG
light: DIQMTQSPSSLSASVGDRVTITCRARQSIGTAIHWYQQKPGKAPKLLIKYASESISGVPSRFSGSGSGTDFTLTISSVQPEDFATYYCQQSGSWPYTFGQGTKLEIKRTVAAPSVFIFPPSDEQLKSGTASVVCLLNNFYPREAKVQWKVDNALQSGNSQESVTEQDSKDSTYSLSSTLTLSKADYEKHKVYACEVTHQGLSSPVTKSFNRGEC
scFv: B1 scFv
B3: MHGB737 (antibody, human IgG1, kappa, V domains shown)
VH: EVQLLESGGGLVQPGGSLRLSCAASGFTFSSYAMHWVRQAPGKGLEWVSGISGSGFSTYYVDSVKGRFTISRDNSKNTLYLQMNSLRAEDTAVYYCAKDNLVAGTVFDYWGQGTLVTVSS
VL: not shown
notes: IgG1; also called GL-optimized B694
B4: HC3B232 (bispecific antibody, human IgG1, kappa, L234A L235A)
scFv: DIQMTQSPSSLSASVGDRVTITCRARQSIGTAIHWYQQKPGKAPKLLIKYASESISGVPSRFSGSGSGTDFTLTISSVQPEDFATYYCQQSGSWPYTFGQGTKLEIKGGSEGKSSGSGSESKSTGGSEVQLVESGGGLVKPGGSLRLSCAASGFTFSRYNMNWVRQAPGKGLEWVSSISTSSNYIYYADSVKGRFTFSRDNAKNSLDLQMSGLRAEDTAIYYCTRGWGPFDYWGQGTLVTVSSEPKSSDKTHTCPPCPAPEAAGGPSVFLFPPKPKDTLMISRTPEVTCVVVSVSHEDPEVKFNWYVDGVEVHNAKTKPREEQYNSTYRVVSVLTVLHQDWLNGKEYKCKVSNKALPAPIEKTISKAKGQPREPQVYVYPPSREEMTKNQVSLTCLVKGFYPSDIAVEWESNGQPENNYKTTPPVLDSDGSFALVSKLTVDKSRWQQGNVFSCSVMHEALHNHYTQKSLSLSPGK
heavy: QVQLQQSGPGLVKPSQTLSLTCAISGDSVSSNSAAWNWIRQSPSRGLEWLGRTYYRSKWYNDYAVSVKSRITINPDTSKNQISLQLNSVTPEDTAVYYCAGDRRYGIVGLPFAYWGQGTLVTVSSASTKGPSVFPLAPSSKSTSGGTAALGCLVKDYFPEPVTVSWNSGALTSGVHTFPAVLQSSGLYSLSSVVTVPSSSLGTQTYICNVNHKPSNTKVDKKVEPKSCDKTHTCPPCPAPEAAGGPSVFLFPPKPKDTLMISRTPEVTCVVVSVSHEDPEVKFNWYVDGVEVHNAKTKPREEQYNSTYRVVSVLTVLHQDWLNGKEYKCKVSNKALPAPIEKTISKAKGQPREPQVYVLPPSREEMTKNQVSLLCLVKGFYPSDIAVEWESNGQPENNYLTWPPVLDSDGSFFLYSKLTVDKSRWQQGNVFSCSVMHEALHNHYTQKSLSLSPG
light: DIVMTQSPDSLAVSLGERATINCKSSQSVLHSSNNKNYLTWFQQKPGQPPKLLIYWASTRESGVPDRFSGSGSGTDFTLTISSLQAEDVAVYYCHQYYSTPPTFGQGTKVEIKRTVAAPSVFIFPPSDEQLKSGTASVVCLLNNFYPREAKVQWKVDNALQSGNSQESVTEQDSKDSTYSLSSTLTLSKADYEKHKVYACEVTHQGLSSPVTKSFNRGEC
B5: HC3B231 (bispecific antibody, human IgG1, kappa, L234A L235A)
scFv: QSALTQPASVSGSPGQSITISCTGTSSNIGTYKFVSWYQQHPGKAPKVMIYEVSKRPSGVSNRFSGSKSGNTASLTISGLQAEDEADYYCVSYAGSGTLLFGGGTKLTVLGGSEGKSSGSGSESKSTGGSQVQLQQSGPGLVKPSQTLSLTCAISGDSVFNNNAAWSWIRQSPSRGLEWLGRTYYRSKWLYDYAVSVKSRITINPDTSKNQFSLQLNSVTPEDTAVYYCARGYSSSFDYWGQGTLVTVSSEPKSSDKTHTCPPCPAPEAAGGPSVFLFPPKPKDTLMISRTPEVTCVVVSVSHEDPEVKFNWYVDGVEVHNAKTKPREEQYNSTYRVVSVLTVLHQDWLNGKEYKCKVSNKALPAPIEKTISKAKGQPREPQVYVYPPSREEMTKNQVSLTCLVKGFYPSDIAVEWESNGQPENNYKTTPPVLDSDGSFALVSKLTVDKSRWQQGNVFSCSVMHEALHNHYTQKSLSLSPG
heavy: B4 heavy
light: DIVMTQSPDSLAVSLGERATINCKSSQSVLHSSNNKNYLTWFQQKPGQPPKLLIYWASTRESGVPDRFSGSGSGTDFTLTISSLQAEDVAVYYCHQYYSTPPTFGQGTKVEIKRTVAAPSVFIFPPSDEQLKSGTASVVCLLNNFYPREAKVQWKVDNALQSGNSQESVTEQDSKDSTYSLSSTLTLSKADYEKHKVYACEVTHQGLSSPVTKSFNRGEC
B6: HC3B235 (bispecific antibody, human IgG1, kappa, L234A L235A)
scFv: QTVVTQEPSLTVSPGGTVTLTCRSSTGAVTTSNYANWVQQKPGQAPRGLIGGTNKRAPGTPARFSGSLLGGKAALTLSGVQPEDEAEYYCALWYSNLWVFGGGTKLTVLGGSEGKSSGSGSESKSTGGSEVQLVESGGGLVQPGGSLRLSCAASGFTFNTYAMNWVRQAPGKGLEWVARIRSKYNNYATYYAASVKGRFTISRDDSKNSLYLQMNSLKTEDTAVYYCVRHGNFGNSYVSWFAYWGQGTLVTVSSEPKSSDKTHTCPPCPAPEAAGGPSVFLFPPKPKDTLMISRTPEVTCVVVSVSHEDPEVKFNWYVDGVEVHNAKTKPREEQYNSTYRVVSVLTVLHQDWLNGKEYKCKVSNKALPAPIEKTISKAKGQPREPQVYVYPPSREEMTKNQVSLTCLVKGFYPSDIAVEWESNGQPENNYKTTPPVLDSDGSFALVSKLTVDKSRWQQGNVFSCSVMHEALHNHYTQKSLSLSPG
heavy: QVQLQQSGPGLVKPSQTLSLTCAISGDSVSSNRAAWNWIRQSPSRGLEWLGRTYYRSKWYNDYAVSVKSRITINPDTSKNQISLQLNSVTPEDTAVYYCARVRPGIPFDYWGQGTPVTVSSASTKGPSVFPLAPSSKSTSGGTAALGCLVKDYFPEPVTVSWNSGALTSGVHTFPAVLQSSGLYSLSSVVTVPSSSLGTQTYICNVNHKPSNTKVDKKVEPKSCDKTHTCPPCPAPEAAGGPSVFLFPPKPKDTLMISRTPEVTCVVVSVSHEDPEVKFNWYVDGVEVHNAKTKPREEQYNSTYRVVSVLTVLHQDWLNGKEYKCKVSNKALPAPIEKTISKAKGQPREPQVYVLPPSREEMTKNQVSLLCLVKGFYPSDIAVEWESNGQPENNYLTWPPVLDSDGSFFLYSKLTVDKSRWQQGNVFSCSVMHEALHNHYTQKSLSLSPG
light: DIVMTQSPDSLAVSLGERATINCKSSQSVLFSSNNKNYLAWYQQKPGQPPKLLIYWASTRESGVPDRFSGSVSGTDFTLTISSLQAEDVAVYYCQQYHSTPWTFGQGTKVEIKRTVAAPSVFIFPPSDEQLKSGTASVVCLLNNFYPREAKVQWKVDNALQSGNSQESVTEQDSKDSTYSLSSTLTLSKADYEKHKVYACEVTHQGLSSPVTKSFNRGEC
B7: HC3B230 (bispecific antibody, human IgG1, kappa, L234A L235A)
scFv: B6 scFv
heavy: B4 heavy
light: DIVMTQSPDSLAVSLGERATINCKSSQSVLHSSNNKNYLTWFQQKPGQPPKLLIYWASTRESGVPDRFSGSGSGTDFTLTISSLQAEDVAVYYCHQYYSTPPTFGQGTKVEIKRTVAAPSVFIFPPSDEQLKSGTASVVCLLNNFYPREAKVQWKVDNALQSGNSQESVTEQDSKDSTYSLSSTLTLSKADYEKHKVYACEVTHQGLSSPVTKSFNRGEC
B8: HC3B216 (bispecific antibody, human IgG1, lambda, L234A L235A)
heavy: QVQLQQSGPRLVRPSQTLSLTCAISGDSVFNNNAAWSWIRQSPSRGLEWLGRTYYRSKWLYDYAVSVKSRITVNPDTSRNQFTLQLNSVTPEDTALYYCARGYSSSFDYWGQGTLVTVSSASTKGPSVFPLAPSSKSTSGGTAALGCLVKDYFPEPVTVSWNSGALTSGVHTFPAVLQSSGLYSLSSVVTVPSSSLGTQTYICNVNHKPSNTKVDKKVEPKSCDKTHTCPPCPAPEAAGGPSVFLFPPKPKDTLMISRTPEVTCVVVSVSHEDPEVKFNWYVDGVEVHNAKTKPREEQYNSTYRVVSVLTVLHQDWLNGKEYKCKVSNKALPAPIEKTISKAKGQPREPQVYVYPPSREEMTKNQVSLTCLVKGFYPSDIAVEWESNGQPENNYKTTPPVLDSDGSFALVSKLTVDKSRWQQGNVFSCSVMHEALHNHYTQKSLSLSPG
light: QSALTQPASVSGSPGQSITISCTGTSSNIGTYKFVSWYQQHPDKAPKVLLYEVSKRPSGVSSRFSGSKSGNTASLTISGLQAEDQADYHCVSYAGSGTLLFGGGTKLTVLGQPKAAPSVTLFPPSSEELQANKATLVCLISDFYPGAVTVAWKADSSPVKAGVETTTPSKQSNNKYAASSYLSLTPEQWKSHRSYSCQVTHEGSTVEKTVAPTECS
scFv: not shown

What was measured:
[1] = molecular target: HLA-G on cells (K562-HLA-G and HLA-G expressing tumor cells) (human); test: cell-based or functional assay
[2] = molecular target: T1, MHGW8 (B2m-3(G4S)-HLA-G1-G4S-Avi) (human, biotinylated (Avi tag) in the blocking assay); test: SPR, mAb captured by goat anti-human Fc, MHGW8 flowed
T1 construct: Single chain β2m-HLA-G1; also called soluble HLA-G1 extracellular domain; recombinant biotinylated HLA-G1

Binder | Cytotoxicity, EC50 (T cell-mediated, NCI-H2009-b2m target cells, 72 hr) [1] [nM] | other results
B1 | 0.00385 | –
B2 | 0.00324 | –
B3 | – | Kd [2]: 2.56 nM; koff [2]: 0.00031 s⁻¹; kon [2]: 200000 M⁻¹ s⁻¹
B4 | 0.00677 | –
B5 | 0.126 | –
B6 | 0.0837 | –
B7 | 0.00992 | –
B8 | 1.9 | –
